From patent US20090123479A1 (published 2009)

T1: recombinant human IL-23 (human, UniProt Q9NPF7 20-189; P29460 23-328)
T1 construct: also called hIL-23
T1 sequence 1: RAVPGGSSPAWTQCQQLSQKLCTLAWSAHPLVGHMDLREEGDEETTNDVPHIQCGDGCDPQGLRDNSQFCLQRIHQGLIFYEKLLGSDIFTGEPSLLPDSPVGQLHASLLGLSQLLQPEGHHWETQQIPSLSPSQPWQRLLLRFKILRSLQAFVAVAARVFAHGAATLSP
T1 sequence 2: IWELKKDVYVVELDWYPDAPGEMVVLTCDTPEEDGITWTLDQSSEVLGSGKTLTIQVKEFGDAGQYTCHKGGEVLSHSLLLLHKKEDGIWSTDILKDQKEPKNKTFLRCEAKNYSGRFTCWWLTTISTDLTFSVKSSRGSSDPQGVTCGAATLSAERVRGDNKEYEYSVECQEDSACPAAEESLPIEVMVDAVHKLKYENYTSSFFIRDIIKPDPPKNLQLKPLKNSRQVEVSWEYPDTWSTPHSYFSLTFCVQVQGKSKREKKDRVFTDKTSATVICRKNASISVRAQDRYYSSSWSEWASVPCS


How the values were obtained:
[1] = biological target: T1, recombinant human IL-23; test: SPR (Biacore T100), tissue culture supernatant antibody captured on anti-human IgG, IL-23 analyte
Protocol: Biacore analysis was carried out using a capture surface on a CM5 chip. Anti-human IgG (BR-1008-39) was used as the capturing agent. Anti-human IgG was coupled to a CM5 biosensor chip by primary amine coupling. Humanized antibody was captured on this immobilised surface and defined concentrations of IL-23 were passed over this captured surface. An injection of buffer over the captured antibody surface was used for double-referencing. […] T100 Biacore machine was used to generate the data; all runs were carried out at 25° C. using HBS EP. Data was analysed using the software inherent to the machine and fitted to the 1:1 model of binding. Tables 7 and 8 detail the IL-23 binding analysis carried out on the 8C92H6.HC1LC1 chimera and selected humanized variants in two separate experiments. […] The data shown for the humanized variants is representative of a number of runs. The chimeric mAb (8C9H6.HC1LC1) was only run once in each experiment, so data shown for this mAb is from that one run.

[2] = biological target: T1, recombinant human IL-23; test: SPR (Biacore T100), CHO supernatant antibody captured on Protein A or anti-human IgG, IL-23 analyte at 256, 64, 16, 4, 1 nM
[3] = biological target: T1, recombinant human IL-23; test: SPR (Biacore T100), purified material captured on Protein A or anti-human IgG, IL-23 analyte at 256, 64, 16, 4, 1 nM
Protocol: (§1) Protein A or an anti-human IgG (Biacore BR-1008-39) was immobilised on a Biacore CM5 chip by primary amine coupling in accordance with the manufacturer's instructions. Anti IL-23 antibodies were captured on this surface and after a period of stabilisation, […] was passed over the antibody captured surface and a binding sensorgram was obtained. […] All runs were double referenced with a buffer injection over the captured antibody surface. Data was analysed using the 1:1 model using the software inherent to the Biacore 3000 or T100 depending upon which machine was used to generate kinetics. Analysis was carried out at 25° C. using HBS-EP buffer. Data presented in Tables 3-6 are on tissue culture supernatants of CHO cells transiently expressing the antibody of interest unless otherwise indicated. Data was generated using concentrations of IL-23 (256, 64, 16, 4, 1 and 0.25 nM) The data shown for the humanized variants is representative of a number of runs, The chimeric mAb (8C9H6.HC1LC1) was only run once in each experiment, so data shown for this mAb is from that one run, […]

[4] = biological target: T1, recombinant human IL-23; test: sandwich ELISA (optimised protocol, OD450): plate coated with anti-human IL-12, antibody pre-incubated with constant human IL-23, bound antibody detected with anti-human IgG gamma chain HRP; purified antibody
Protocol: Optimised assay conditions: Plates were coated with anti human IL12 at 2 μg/diluent (phosphate buffered saline). 50 μl/well of this mixture was incubated overnight at 4° C. The plates were then washed three times with Phosphate Buffered Saline with 0.05% Tween 20 (PBST). Plates were blocked with 4% skim milk powder (Fluka BioChemika #70166) PBS 200 μl/well for a minimum of 1 hour at room temperature. The plates were then washed three times with Phosphate Buffered Saline+0.05% Tween 20 (PBST). Various concentrations of antibody were incubated in a separate plate with a constant concentration of IL-23 for 1 hour at room temperature. 50 ul of each mixture were transferred to the assay plate and incubated at RT for 1 hr. They were then washed three times with Phosphate Buffered Saline+0.05% Tween 20 (PBST). […] 50 μl/well of the detection antibody was added and incubated at RT for 1 hour. The plates were then washed three times with Phosphate Buffered Saline+0.05% Tween 20 (PBST). 50 μl/well of TMB was added to the plates and incubated at RT for 10 min. 50 μl/well of 1 MH₂SO₄ was added. The plate was read at OD450 nm using the SOftmaxPRO versamax plate reader.

[5] = biological target: T1, recombinant human IL-23; test: SPR (Biacore T100), CHO supernatant antibody captured on Protein A or anti-human IgG, IL-23 analyte at 10 concentrations 128-0.25 nM
Protocol: as §1, with “indicated.” for “indicated. Data was generated using concentrations of IL-23 (256, 64, 16, 4, 1 and 0.25 nM) The data shown for the humanized variants is representative of a number of runs, The chimeric mAb (8C9H6.HC1LC1) was only run once in each experiment, so data shown for this mAb is from that one run,”

[6] = biological target: T1, recombinant human IL-23; test: SPR (Biacore 3000), purified antibody captured on Protein A or anti-human IgG, IL-23 analyte at 256, 64, 16, 4 nM
Protocol: as §1

Binder | Kd [1] | koff [1] | kon [1] | Kd [2] | koff [2] | kon [2] | Kd [3] | koff [3] | kon [3] | EC50 (read off the curve) [4] | Kd [5] | koff [5] | kon [5] | Kd [6] | koff [6] | kon [6]
A3M0 (antibody, human IgG1, kappa, V domains shown, Full length chains; also called humanized mAb A3M0) VH: QVQLVQSGAEVKKPGSSVKVSCKASGYTFTSYGITWVRQAPGQGLEWMGENYPRSGNTYYNEKFKGRVTITADKSTSTAYMELSSLRSEDTAVYYCARSEFISTVVAPYYYALDYWGQGTLVTVSS VL: DIVMTQSPDSLAVSLGERATINCKASKKVTIFGSISALHWYQQKPGQPPKLIYNGAKLESGVPDRFSGSGSGTDFTLTISSLQAEDVAVYYCLQNKEVPYTFGGGTKVEIKR | 170 pM | 0.000234 s⁻¹ | 1.38e+06 M⁻¹ s⁻¹ | 920 pM | 0.00028 s⁻¹ | 300000 M⁻¹ s⁻¹ |  |  |  |  |  |  |  |  |  | 
chimeric 8C92H6 HC1LC1 (antibody, V domains shown, Murine variable regions with human constant regions; also called 8C92H6.HC1LC1 Chimera; 8C9 chimera) VH: QVQLQQSGAELARPGTSVKLSCKASGYTFTSYGITWVKQRTGQGLEWIGENYPRSGNTYYNEKFKGKATLTADKSSSTAYMELRSLTSEDSAVYFCARCEFISTVVAPYYYALDYWGQGTSLVTVS VL: DIVLTQSPASLAVSLGQKATISCKASKKVTIFGSISALHWYQQKPGQPPKLIYNGAKLESGVSARFSDSGSQNRSPFGNQLSFTLTIDPVEADDAATYYCLQNKEVPYTFGGGTKLEIKR |  |  |  |  |  |  | 2200 pM | 0.00043 s⁻¹ | 200000 M⁻¹ s⁻¹ | ~60 pM | 910 pM | 0.00029 s⁻¹ | 320000 M⁻¹ s⁻¹ | 1800 pM | 0.00044 s⁻¹ | 240000 M⁻¹ s⁻¹
